Assay [1] has as its target T1, single-chain mouse IL-27 (Mus musculus, UniProt O35228+Q8K3I6).
T1 sequence (O35228+Q8K3I6 with tags, fused parts or gaps): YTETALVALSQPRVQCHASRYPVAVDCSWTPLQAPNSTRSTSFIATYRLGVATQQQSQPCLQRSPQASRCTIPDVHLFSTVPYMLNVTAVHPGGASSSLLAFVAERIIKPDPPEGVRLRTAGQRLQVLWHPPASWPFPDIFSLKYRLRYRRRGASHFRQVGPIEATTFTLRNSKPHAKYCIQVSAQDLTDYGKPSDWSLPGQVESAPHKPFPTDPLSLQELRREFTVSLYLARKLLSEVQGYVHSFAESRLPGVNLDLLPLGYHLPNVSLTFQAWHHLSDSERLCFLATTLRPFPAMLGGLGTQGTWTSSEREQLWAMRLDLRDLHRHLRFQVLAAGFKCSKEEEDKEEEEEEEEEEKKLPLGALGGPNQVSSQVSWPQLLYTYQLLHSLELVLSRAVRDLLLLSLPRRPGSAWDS
Description: IL-27 inhibition of IL-2 production neutralized by IL-27RA Fc (third set of experiments). The class given is cell-based. To be noted: + IL-27 (10 ng/ml). The protocol:
Naïve mouse CD4 T-cells were isolated as described above. For testing of the neutralizing mAbs, the naïve CD4 T cells were preincubated for 30 minutes at 37 degrees C. with graded concentrations (60, 30, 15, 7.5, 3.75, 1.875.micro.g/ml) of either neutralizing rat anti-mouse IL27RA mAb (each mAb tested separately), rat IgG1 isotype control mAb, rat IgG2a isotype control mAb, or no mAb. […] The CD4 T cells (4×10^5/well) were then transferred to anti-CD3 coated tissue culture plates. Single-chain mouse IL-27 (10 ng/ml) was then added to the plates. Duplicate plates were set up for all experimental conditions. The plates were then cultured at 37 degrees for up to 72 hours.
For testing of the soluble receptor, single-chain mouse IL-27 (10 ng/ml) was preincubated for 30 minutes at 37 degrees C. with either IL27RAm(mFc1) (10.0 and 5.0.micro.g/ml), IL27RA-Fc5, mouse Fc1 protein (10.0 and 5.0.micro.g/ml), human Fc5 protein (10.0 and 5.0.micro.g/ml), or no recombinant protein in wells of the anti-CD3 coated plates. 4×10^5 CD4^+ CD62L high cells were added to the wells. Duplicate plates were set up for all experimental conditions. The plates were then cultured at 37 degrees for up to 72 hours. Cell supernatants were collected from one set of plates at 48 hours and from the duplicate set of plates at 72 hours. The supernatants were stored frozen at −80° C.

Assay [2] addresses T2, muIL-27 (Mus musculus, UniProt O35228+Q8K3I6).
T2 construct: purchased R&D Systems
T2 sequence (Q8K3I6 29-234): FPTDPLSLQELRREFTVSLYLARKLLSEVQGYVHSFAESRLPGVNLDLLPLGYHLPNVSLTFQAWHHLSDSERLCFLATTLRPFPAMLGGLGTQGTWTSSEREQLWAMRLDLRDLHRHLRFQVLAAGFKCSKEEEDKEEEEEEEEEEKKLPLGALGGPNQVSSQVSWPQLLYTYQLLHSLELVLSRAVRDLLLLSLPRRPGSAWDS
T2 sequence (O35228 19-228): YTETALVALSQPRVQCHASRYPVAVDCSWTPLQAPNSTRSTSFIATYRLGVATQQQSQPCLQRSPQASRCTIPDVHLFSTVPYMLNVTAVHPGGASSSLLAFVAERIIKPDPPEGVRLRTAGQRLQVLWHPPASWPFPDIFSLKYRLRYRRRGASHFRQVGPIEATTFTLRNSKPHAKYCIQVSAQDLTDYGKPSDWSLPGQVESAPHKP
Description: Phospho-STAT3 (BIO-PLEX) neutralization of IL-27 by soluble receptors, total human PBMCs. Type of assay: cell-based. As to conditions: ligand muIL-27 at EC90 (2 nM). From the text:
Whole mouse spleens were harvested from C57 B1/6 mice and washed two times with 1×PBS before being plated out at 2×10^5 cells/well in assay media (RPMI 1640 plus 10% fetal bovine serum) in 96-well, round-bottom tissue culture plates. Total human PBMC (peripheral blood mononuclear cells) were thawed from a frozen vial collected from a leukapherisis donation and washed two times with 1×PBS before being plated out at 10^6 cells/well in assay media in 96-well, round-bottom tissue culture plates. […] Following pre-incubation, treatments were added to the plates containing the cells and incubated together at 37° C. for 15 minutes.
Following incubation, cells were washed with ice-cold wash buffer (BIO-PLEX Cell Lysis Kit, BIO-RAD Laboratories, Hercules, Calif.) and put on ice to stop the reaction according to manufacturer's instructions. […]
Capture beads (BIO-PLEX Phospho-Stat3 Assay, BIO-RAD Laboratories) were combined with 50 μL of 1:1 diluted lysates and added to a 96-well filter plate according to manufacture's instructions (BIO-PLEX Phosphoprotein Detection Kit, BIO-RAD Laboratories). […] After the final wash, beads were resuspended in 125 μL/well of bead suspension buffer, shaken for 30 seconds, and read on an array reader (BIO-PLEX, BIO-RAD Laboratories) according to the manufacture's instructions. Data were analyzed using analytical software (BIO-PLEX MANAGER 3.0, BIO-RAD Laboratories). […]

Where “and” joins values, the source holds several entries; their conditions need not be identical. Equal entries are not always repeated.

With “human IL-27RA-Fc5: Extracellular domain of human IL27RA (amino acids 1 to 512 of SEQ ID NO:3) fused to Fc5, effector minus human gamma1 Fc; SEQ ID NO:16”, the IL-2 concentration in assay [1] (48 hr, protein conc. 5 (μg/ml; Fc controls in molar equiv.)) is 5784.11 pg/mL; in assay [1] (48 hr, protein conc. 10 (μg/ml; Fc controls in molar equiv.), listed as hIL-27RA) it was 5774.94 pg/mL and 5333.6 pg/mL; in assay [1] (72 hr, protein conc. 5 (μg/ml; Fc controls in molar equiv.)), 1869.62 pg/mL; in assay [1] (72 hr, protein conc. 10 (μg/ml; Fc controls in molar equiv.), listed as hIL-27RA), 28607.63 pg/mL and 17481.17 pg/mL. In addition, the IC50 (commonly the concentration that inhibits the measured activity by half) in assay [2] was determined as 2.97 nM.

(Values after US20100093076A1, “SOLUBLE IL-27 RECEPTOR” (priority 2006, published 2010).)
